Data reported in patent US20080260729A1 (ZENYTH OPERATIONS, published 2008).

T1: 6×His.mVEGF-B10-108 (murine, UniProt P49766 31-129)
T1 construct: not shown: additional 16 N-terminal amino acids with 6xHis tag and Genenase I cleavage site
T1 sequence: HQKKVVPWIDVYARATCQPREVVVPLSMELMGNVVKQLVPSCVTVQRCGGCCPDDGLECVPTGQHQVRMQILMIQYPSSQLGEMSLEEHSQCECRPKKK

T2: human VEGF-B10-108 (human, UniProt P49765 31-129)
T2 construct: also called VB108
T2 sequence: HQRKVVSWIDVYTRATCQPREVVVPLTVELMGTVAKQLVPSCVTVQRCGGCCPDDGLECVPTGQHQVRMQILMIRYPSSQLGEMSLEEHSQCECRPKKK


What was measured:
[1] = target: T1, 6×His.mVEGF-B10-108; test: ELISA on plate-bound 6×His.mVEGF-B10-108
Protocol: (§1) Monoclonal antibodies raised against hVEGF-B were tested for cross-reactivity with mVEGF-B using a standard ELISA format. mAbs were incubated with plate bound hVEGF-B₁₀₋₁₀₈ or 6×His.mVEGF-B₁₀₋₁₀₈ at a concentration of 1.25 μg/ml and bound mAb visualized using a HRP-conjugated secondary reagent and TMB substrate.

[2] = target: T2, human VEGF-B10-108; test: SPR (BIAcore 2000), VEGF-B10-108 amine-coupled on chip, mAb injected 125-0.98 nM
Protocol: A Biosensor-based approach was used for kinetic analysis of mAb binding to target VEGF-B using a BIAcore™ 2000 surface plasmon resonance instrument (Biacore AB, Uppsala, Sweden). A biosensor chip was activated for covalent coupling of VEGF-B using N-ethyl-N′-(3-dimethylaminopropyl)-carbodiimide hydrochloride (EDC) and N-hydroxysuccinimide (NHS) according to the supplier's (Biacore AB, Uppsala, Sweden) instructions. A solution of 5 μg/ml VEGF-B₁₀₋₁₀₈ in 20 mM sodium acetate, pH 4.8 was prepared and an aliquot (35 μl) was injected at a flow rate of 2 μl/min to achieve approximately 500-600 response units (RU) of coupled protein. Finally, 1 M ethanolamine was injected as a blocking agent.
For kinetics measurements, two-fold serial dilutions of test antibody starting at 125n M to 0.98 nM were injected in BIAcore™ buffer (20 mM HEPES, pH 7.8, 0.15 M NaCl, 3.4 mM EDTA, 0.005% Tween-20) with 1 mg/ml bovine serum albumin (BSA) at 25° C. at a flow rate of 15 μl/min. Simultaneous analysis of association (kₐ) and dissociation (kd) rate constants using BIAevaluation™ V3.02 software (Biacore AB, Uppsala, Sweden) was used to determine the equilibrium binding constant (KD).

[3] = target: human VEGF-B (Example 10, form not stated) (human) (UniProt P49765); test: SPR (BIAcore), immobilised human VEGF-B, Fab injected at several concentrations
[4] = target: human VEGF-B (Example 10, form not stated) (human) (UniProt P49765); test: BIAcore dissociation rate, ratio
[5] = target: human VEGF-B (Example 10, form not stated) (human) (UniProt P49765); test: competition ELISA, plate bound human VEGF-B, soluble VEGF-B titrated
[6] = target: T1, 6×His.mVEGF-B10-108; test: ELISA on plate-bound antigen, HRP secondary, TMB
Protocol: as §1

[7] = target: human VEGF-B (Example 10, form not stated) (human) (UniProt P49765); test: SPR (BIAcore), immobilised human VEGF-B

Kd [2] | koff [2] | kon [2] | Relative koff (koff CDR-Fab variant/koff murine-human chimera) [4] | Relative VEGF-B binding affinity (IC50 CDR-Fab variant/IC50 murine-human chimera) [5] | Binder | also measured
2.82 nM | 0.000153 s⁻¹ | 54500 M⁻¹ s⁻¹ | – | – | murine monoclonal antibody 1C6 (antibody, V domains shown, Whole murine mAb from hybridoma; also called mAb 1C6) VH: QVQLQQSGPELVKPGASVRISCKASGYTFTTFYIHWVKQRPGQGLEWIAWFYPGNVNTNYNEKFKDKATLTADKSSSAAYLQLNSLTSEDSAVYFCTRSPYYGYVFDFWGQGTTLTVSS VL: DIVMTQSHKFMSTSVGDRVSITCKASQDVGSAVAWYQQKPGQSPKLLIYWASTRHTGVPDRFTGSGSGTDFTFTISNVQSEDLADYFCQQYSSSLTFGAGATKLEL | binding result [1]: binds
– | – | – | – | – | 2H10 murine Fab (Fab, V domains shown) VH: QVQLQQPGTELVKPGASVKLSCKASGYTFTGFWIHWVKQRPGQGLEWIGHINPGNGGTNYNEKFKRMATLTVDKSSSTAYMQLSSLTSEDSAVYYCARSYSNYVRAMDYWGQGTSVTVSS VL: EIQMTQTTSSLSASLGDRVTISCRASQDISNFLNWYQQKPDGTVKLLIYYTSTLHSGVPSRFSGSGSGTDYSLTISNLEQEDIATYFCQQGKTLPPTFGGGTKLEIK | Kd [3]: 0.115 nM
0.18 nM | 6.77e-05 s⁻¹ | 385000 M⁻¹ s⁻¹ | – | – | murine monoclonal antibody 2H10 (antibody, V domains shown, Whole murine mAb from hybridoma; also called mAb 2H10) VH: QVQLQQPGTELVKPGASVKLSCKASGYTFTGFWIHWVKQRPGQGLEWIGHINPGNGGTNYNEKFKRMATLTVDKSSSTAYMQLSSLTSEDSAVYYCARSYSNYVRAMDYWGQGTSVTVSS VL: EIQMTQTTSSLSASLGDRVTISCRASQDISNFLNWYQQKPDGTVKLLIYYTSTLHSGVPSRFSGSGSGTDYSLTISNLEQEDIATYFCQQGKTLPPTFGGGTKLEIK | binding result [1]: binds
– | – | – | 1 | 1 | mouse-human chimeric Fab (2H10) (Fab, V domains shown) VH: QVQLQQPGTELVKPGASVKLSCKASGYTFTGFWIHWVKQRPGQGLEWIGHINPGNGGTNYNEKFKRMATLTVDKSSSTAYMQLSSLTSEDSAVYYCARSYSNYVRAMDYWGQGTSVTVSS VL: EIQMTQTTSSLSASLGDRVTISCRASQDISNFLNWYQQKPDGTVKLLIYYTSTLHSGVPSRFSGSGSGTDYSLTISNLEQEDIATYFCQQGKTLPPTFGGGTKLEIK | –
2.71 nM | 0.000132 s⁻¹ | 48700 M⁻¹ s⁻¹ | – | – | murine monoclonal antibody 4E12 (antibody, V domains shown, Whole murine mAb from hybridoma; also called mAb 4E12) VH: QVQPQQPGAELVKPGASVKMSCKASGDTFTNSWIGWVTQRPGQGLEWIGDIFPGSGHTNYNEKFKNRATLTVDTSSSTAYMLLSSLTSDDSAVYYCVIENYAWFAYWGQGTLVTVSA VL: DIVMTQSQKFMSSSVGDRVSVTCKASQNVNTNVAWYQQKQGQSPRPLIYSASSRCSGVPDRFTGSGFGTDFTLTISNVQSEDLAEYFCQQYHSFPLTFGAGAKLDLK | binding result [6]: no binding (tested: 1.25 µg/ml)
– | – | – | 3.7 | 2.25 | 2H10 CDR-grafted human germline Fab (CDR-Fab) (Fab, V domains shown) VH: QVQLVQSGAEVKKPGASVKVSCKASGYTFTGFWIHWVRQAPGQGLEWMGHINPGNGGTNYNEKFKRRVTMTRDTSISTAYMELSRLRSDDTAVYYCARSYSNYVRAMDYWGQGTLVTVSS VL: DIQMTQSPSSLSASVGDRVTITCRASQDISNFLNWYQQKPGKAPKLLIYYTSTLHSGVPSRFSGSGSGTDFTLTISSLQPEDFATYYCQQGKTLPPTFGGGTKVEIK | Kd [3]: 0.66 nM
– | – | – | 1.4 | 1.42 | CDR-Fab framework variant H73 (Fab, V domains shown) VH: QVQLVQSGAEVKKPGASVKVSCKASGYTFTGFWIHWVRQAPGQGLEWMGHINPGNGGTNYNEKFKRRVTMTRDKSISTAYMELSRLRSDDTAVYYCARSYSNYVRAMDYWGQGTLVTVSS VL: DIQMTQSPSSLSASVGDRVTITCRASQDISNFLNWYQQKPGKAPKLLIYYTSTLHSGVPSRFSGSGSGTDFTLTISSLQPEDFATYYCQQGKTLPPTFGGGTKVEIK | Kd [7]: 0.337 nM; fold of KD against the 2H10 murine Fab [7]: < 3 fold
